Target: BF520.M6.I1 Env (HIV-1 (clade A, infant BF520))

B1: BF520.1 mature mAb (IgG) (antibody, V domains shown)
VH: QVQLVQSGAEMKMPGASVKVSCKASGYTFTGNYIHWVRQAPGQGLEWMGWIAPHSGDTSYAQRFQGRVTMTGDTSLSTAYMELSRLRSDDTAVYYCARGPFPNYYGPGSYWGGLDFWGQGTLVSVSS
VL: EIVMTQSPATLSVSLGERATLSCRTSQNVAYNFAWYQQKPGQAPRLLIYEASSRATGTPARFSGSGFGTEFTLTISSMQSEDFAVYYCQQYNNWPSPFTFGPGTKVHIK
In the case of B1, the potency (IC50) of neutralization of the autologous pseudovirus BF520.M6.I1 is reported as 1.1 μg ml^−1.

From paper PMC6522554
